From patent publication US20110152345A1, “EBI3, DLX5, NPTX1 AND CDKN3 FOR TARGET GENES OF LUNG CANCER THERAPY AND DIAGNOSIS” (Oncotherapy Science, Inc., priority 2007, published 2011) come the findings set out here.

B2: cyclin-dependent kinase inhibitor 3 (CDKN3), endogenous in LC319 cells (enzyme)
chain: MKPPSSIQTSEFDSSDEEPIEDEQTPIHISWLSLSRVNCSQFLGLCALPGCKFKDVRRNVQKDTEELKSCGIQDIFVFCTRGELSKYRVPNLLDLYQQCGIITHHHPIADGGTPDIASCCEIMEELTTCLKNYRKTLIHCYGGLGRSCLVAACLLLYLSDTISPEQAIDSLRDLRGSGAIQTIKQYNYLHEFRDKLAAHLSSRDSQSRSVSR
notes: Endogenous protein in extracts of the human lung cancer cell line LC319; also called KAP; KAP1

Test [1] has as its system COS-7 cells. The test is described as follows: Autocrine assay: COS-7 cells incubated with recombinant NPTX1 protein, MTT. In kind it is cell-based. Conditions: NPTX1 at final concentration of 0.1 nM to 1 nM, compared with control. The text has this: FIG. 10. Presents the autocrine cellular growth effect of NPTX1. Part A depicts the inhibition of growth of lung cancer cells by siRNA against NPTX1. The upper panels of Part A depict the expression of NPTX1 in response to si-NPTX1s (si-1, -2) or control siRNAs (LUC or SCR) in A549 and SBC-5 cells, analyzed by RT-PCR analysis. The middle panels of Part A present images of colonies examined by colony-formation assays of the A549 and SBC-5 cells transfected with specific siRNAs for NPTX1 or control plasmids. The bottom panels of Part A present the viability of the A549 or SBC-5 cells evaluated by MTT assay in response to si-NPTX1s, -LUC, or -SCR. All assays were performed three times, and in triplicate wells. Part B presents growth-promoting effect of NPTX1 transiently overexpressed in COS-7 cells. Top panel, Transient expression of NPTX1 in COS-7 cells, detected by Western blot analysis. The bottom panels, Viability of the COS-7 cells evaluated by MTT (left) and colony formation assays (right). C, Left panel, Autocrine/paracrine effect of NPTX1 on the growth of mammalian cells. Cell viability counted by MTT assays (COS-7 cells treated with NPTX1 in final concentrations of 0, 0.1, or 1 nM) (right lanes indicated by PBS). […]

For test [2], the target named is T1, neuronal pentraxin receptor (NPTXR), endogenous on SBC-5 lung cancer cells (human, UniProt O95502 1-500).
T1 construct: Endogenous NPTXR of the human SCLC cell line SBC-5
T1 sequence: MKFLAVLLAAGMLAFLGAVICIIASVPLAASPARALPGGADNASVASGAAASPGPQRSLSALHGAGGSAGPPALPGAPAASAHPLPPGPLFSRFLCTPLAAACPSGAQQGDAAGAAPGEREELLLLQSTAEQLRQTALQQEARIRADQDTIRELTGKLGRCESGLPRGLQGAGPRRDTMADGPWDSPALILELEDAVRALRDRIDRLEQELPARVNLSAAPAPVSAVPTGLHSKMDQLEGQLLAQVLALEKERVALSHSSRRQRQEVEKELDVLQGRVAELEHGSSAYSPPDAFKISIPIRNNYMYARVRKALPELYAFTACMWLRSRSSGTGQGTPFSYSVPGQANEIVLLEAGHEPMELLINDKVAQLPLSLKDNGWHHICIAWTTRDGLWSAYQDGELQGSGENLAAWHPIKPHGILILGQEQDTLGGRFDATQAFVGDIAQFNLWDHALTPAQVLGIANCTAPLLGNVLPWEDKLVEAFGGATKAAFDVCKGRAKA
The test is described as follows: immunocytochemistry of recipient SBC-5 cells incubated 3 hours with conditioned medium of NPTX1-transfected donor cells. As to the method: FIG. 14: Presents internalization of NPTX1 after binding with NPTXR Part A, B, Recipient COS-7 cells (A) or SBC-5 cells (B) were incubated with conditioned medium from NPTX1-transfected (+) donor COS-7 cells or SBC-5 cells, respectively. c-myc-tagged NPTX1 was detected 3 hours after treatment of recipient cells with donor's conditioned medium. Green: NPTX1. Nuclei were visualized by DAPI. (a) Cells were stained for extracellular surface staining with anti-myc antibody for detecting NPTX1. (b) Cells were permialized by Triton X-100 and stained for NPTX1 (myc). (c) 3 hours treatment with PBS. […] 1 or 3 hours after treatment of recipient COS-7 cells with conditioned medium from donor NPTX1-transfected (+) COS-7 cells, internalized NPTX1 was detected by western blotting using anti-myc antibodies.
To determine the mechanism involved in the regulation of NPTX1/NPTXR signaling, the present inventors examined whether NPTX1/NPTXR could be internalized when cells were exposed to secreted NPTX1, through confocal microscopy observation of the subcellular distribution of the NPTX1 and NPTXR. […] The present Mentors detected binding of NPTX1 to the surface of these cells by immunocytochemistry (FIGS. 14A and 14B). […] Then, immunocytochemistry was done under membrane-permeabilizing conditions and we detected internalized exogenous NPTX1 (FIGS. 14A and 14B). […]

In test [3] the target is T2, eukaryotic translation elongation factor 1 delta (EF-1delta), endogenous (human, UniProt P29692 2-281).
T2 construct: Endogenous 31-kDa protein of LC319 cells
T2 sequence: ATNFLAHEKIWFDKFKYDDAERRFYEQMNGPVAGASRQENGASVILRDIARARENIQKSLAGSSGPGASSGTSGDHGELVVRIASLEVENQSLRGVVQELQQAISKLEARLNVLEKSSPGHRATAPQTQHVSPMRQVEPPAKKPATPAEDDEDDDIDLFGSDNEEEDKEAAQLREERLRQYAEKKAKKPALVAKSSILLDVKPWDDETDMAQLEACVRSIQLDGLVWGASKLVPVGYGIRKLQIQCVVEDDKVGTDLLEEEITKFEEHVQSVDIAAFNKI
The test is described as follows: co-immunoprecipitation with anti-CDKN3 monoclonal antibody from LC319 extracts, silver stain, MALDI-TOF-MS. The protocol:
Cell extracts from lung-cancer cell line LC319 were pre-cleared by incubation at 4 degree Centigrade for 1 hour with 100 micro L of protein G-agarose beads in a final volume of 2 ml of immunoprecipitation buffer [0.5% NP-40, 50 mM Tris-HCl, 150 mM NaCl] in the presence of protease inhibitor. After centrifugation at 1000 rpm for 5 min at 4 degree Centigrade, the supernatant was incubated at 4 degree Centigrade with anti-CDKN3 monoclonal antibody or normal mouse IgG, for 2 hours. The beads were then collected by centrifugation at 5000 rpm for 2 min and washed six times with 1 ml of each immunoprecipitation buffer. The washed beads were resuspended in 50 micro L of Laemmli sample buffer and boiled for 5 min, and the proteins were separated by 5-10% SDS PAGE gels (BIO RAD). After electrophoresis, the gels were stained with silver. Protein bands specifically found in extracts immunoprecipitated with anti-CDKN3 monoclonal antibody were excised and served for matrix-assisted laser desorption/ionization-time of flight mass spectrometry (MALDI-TOF-MS) analysis (AXIMA-CFR plus, SHIMADZU BIOTECH).

In test [4] the target is B2. The test can be described thus: co-immunoprecipitation with monoclonal anti-Flag antibody from LC319 cells. An excerpt:
The biological importance of the association of these two proteins and its potential as a therapeutic target for lung cancer was subsequently investigated. To determine the domain in EF-1delta that is required for interaction with CDKN3, each construct of EF-1delta with FLAG-HA-sequence at its N- and C-terminals were transfected into LC319 cells (EF-1delta72-160, EF-1delta161-281, EF-1delta1-160, EF-1delta72-281, and full-length EF-1delta1-281; FIG. 21B).

B1: myc/His-tagged NPTX1 (pcDNA3.1-NPTX1-myc/His) (ligand)
chain: QDFGPTRFICTSVPVDADMCAASVAAGGAEELRSSVLQLRETVLQQKETILSQKETIRELTAKLGRCESQSTLDPGAGEARAGGGRKQPGSGKNTMGDLSRTPAAETLSQLGQTLQSLKTRLENLEQYSRLNSSSQTNSLKDLLQSKIDELERQVLSRVNTLEEGKGGPRNDTEERVKIETALTSLHQRISELEKGQKDNRPGDKFQLTFPLRTNYMYAKVKKSLPEMYAFTVCMWLKSSATPGVGTPFSYAVPGQANELVLIEWGNNPMEILINDKVAKLPFVINDGKWHHICVTWTTRDGVWEAYQDGTQGGSGENLAPYHPIKPQGVLVLGQEQDTLGGGFDATQAFVGELAHFNIWDRKLTPGEVYNLATCSTKALSGNVIAWAESHIEIYGGATKWTFEACRQIN
notes: also called c-myc-tagged NPTX1; exogenous NPTX1; not shown: myc-His tag of the pcDNA3.1 myc-His vector
For the molecule B1, in test [1], the “COS-7 cell growth by MTT assays” value is “enhancement of the cell growth”. In test [2], the binding result is “binds”. Consider B2, for which the binding result in test [3] is “binds”.

B3: EF-1delta161-281 (FLAG-HA-tagged deletion construct) (other, not shown: small tags and cut ends)
chain: GSDNEEEDKEAAQLREERLRQYAEKKAKKPALVAKSSILLDVKPWDDETDMAQLEACVRSIQLDGLVWGASKLVPVGYGIRKLQIQCVVEDDKVGTDLLEEEITKFEEHVQSVDIAAFNKI
notes: Lacks the N-terminal 160 amino acids of EF-1delta; also called EF-1delta 161-281 construct
As to B3, in test [4], the binding result is “no binding”.
